What all share (conditions): protein: ivt; tags: N-terminal FLAG; label: 5'-biotin
For series [1], the target named is T1, hTERT Q169A (Homo sapiens, UniProt O14746 1-1132, Q169A). As to the kind of experiment: pull-down; stronger than WT; 5'-biotin primers with RRL-made 35S-hTERT (no hTR), neutravidin bead pull-down; primer mix pre-incubated on ice 45-60 min; buffer, salt and pH not given (ref 28).
For series [2], the target named is T2, hTERT Q169D (Homo sapiens, UniProt O14746 1-1132, Q169D). In words: pull-down; 5'-biotin primers with RRL-made 35S-hTERT (no hTR), neutravidin bead pull-down; primer mix pre-incubated on ice 45-60 min; buffer, salt and pH not given (ref 28).
For series [3], the target named is T3, hTERT Q169N (Homo sapiens, UniProt O14746 1-1132, Q169N). Described as above.
Series [4] has as its target T1, hTERT Q169A. The series is described as above.
The target in another series is hTERT WT (Homo sapiens, UniProt O14746 1-1132). The description is as above.
Series [5] concerns the target T2, hTERT Q169D. As to the kind of experiment: pull-down; stronger than WT; 5'-biotin primers with RRL-made 35S-hTERT (no hTR), neutravidin bead pull-down; primer mix pre-incubated on ice 45-60 min; buffer, salt and pH not given (ref 28).
Series [6] has as its target T3, hTERT Q169N. The description is as above.

T1 sequence (O14746 whole entry Q169A): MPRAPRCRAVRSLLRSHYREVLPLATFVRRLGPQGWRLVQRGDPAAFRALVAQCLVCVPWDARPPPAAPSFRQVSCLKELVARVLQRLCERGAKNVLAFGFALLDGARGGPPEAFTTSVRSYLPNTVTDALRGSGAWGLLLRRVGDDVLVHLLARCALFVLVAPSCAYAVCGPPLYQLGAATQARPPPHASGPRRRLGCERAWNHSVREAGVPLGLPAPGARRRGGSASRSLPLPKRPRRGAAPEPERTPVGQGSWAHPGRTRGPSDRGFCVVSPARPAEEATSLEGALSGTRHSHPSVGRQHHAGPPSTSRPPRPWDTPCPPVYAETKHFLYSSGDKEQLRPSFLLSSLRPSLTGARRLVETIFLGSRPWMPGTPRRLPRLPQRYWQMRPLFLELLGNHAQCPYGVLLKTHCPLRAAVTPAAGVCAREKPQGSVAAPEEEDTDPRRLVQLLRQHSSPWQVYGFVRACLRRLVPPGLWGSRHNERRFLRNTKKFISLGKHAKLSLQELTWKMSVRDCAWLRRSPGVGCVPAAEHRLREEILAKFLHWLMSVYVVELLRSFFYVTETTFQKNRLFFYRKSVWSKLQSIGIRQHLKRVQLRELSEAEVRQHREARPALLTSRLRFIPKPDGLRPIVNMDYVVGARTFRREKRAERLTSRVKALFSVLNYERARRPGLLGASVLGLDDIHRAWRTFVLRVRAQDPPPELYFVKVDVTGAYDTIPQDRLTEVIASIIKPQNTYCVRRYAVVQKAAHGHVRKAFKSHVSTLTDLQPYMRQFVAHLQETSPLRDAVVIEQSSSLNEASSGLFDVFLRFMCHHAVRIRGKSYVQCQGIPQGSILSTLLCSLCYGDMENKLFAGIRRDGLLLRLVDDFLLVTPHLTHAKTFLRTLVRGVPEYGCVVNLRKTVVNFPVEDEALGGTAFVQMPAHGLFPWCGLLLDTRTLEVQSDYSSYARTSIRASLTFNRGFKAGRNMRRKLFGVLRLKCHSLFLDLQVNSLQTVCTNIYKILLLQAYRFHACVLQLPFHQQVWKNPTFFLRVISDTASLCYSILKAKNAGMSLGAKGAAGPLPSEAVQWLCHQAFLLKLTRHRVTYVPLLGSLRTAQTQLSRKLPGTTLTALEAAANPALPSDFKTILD
T3 sequence (O14746 whole entry Q169N): as the sequence (O14746 whole entry Q169A) above, with A169N counted along it
T2 sequence (O14746 whole entry Q169D): as the sequence (O14746 whole entry Q169A) above, with A169D counted along it
hTERT WT, sequence (O14746 whole entry): as the sequence (O14746 whole entry Q169A) above, with A169Q counted along it

As for TTAGGGTTAGGGTTAGGGTTAGGG (ssDNA) [bio-TELO24], the binding result in the series with hTERT Q169A [1] was “binds”.

As to TTGGGGTTGGGGTTGGGG (ssDNA) [bio-Tetrahymena], the binding result with hTERT Q169D [2], in the series with hTERT Q169N [3], with hTERT Q169A [4] and with hTERT WT was “binds” in each case.

Consider TTAGGGTTAGGG (ssDNA) [bio-TELO12], for which the binding result with hTERT Q169D [5], in the series with hTERT Q169N [6] and with hTERT Q169A [1] was “binds” in each case.

For the molecule TTAGGG (ssDNA) [bio-TELO6], the binding result in the series with hTERT Q169D [5], with hTERT Q169N [6] and with hTERT Q169A [1] was “binds” each time.

Values taken from paper PMC2744565, “Human Telomerase Reverse Transcriptase (hTERT) Q169 Is Essential for Telomerase Function In Vitro and In Vivo”.
